According to US20030103978A1 (Amgen, published 2003):

T1: human OPGbp[143-317] (human, UniProt O14788 143-317)
T1 sequence (looked up): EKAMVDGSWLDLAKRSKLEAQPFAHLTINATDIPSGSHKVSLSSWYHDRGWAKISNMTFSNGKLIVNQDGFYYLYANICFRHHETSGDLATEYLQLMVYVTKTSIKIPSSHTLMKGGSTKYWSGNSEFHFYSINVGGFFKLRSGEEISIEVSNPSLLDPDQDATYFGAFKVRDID

T2: FLAG-murine OPGbp[158-316]/DE (murine, UniProt O35235 158-316)
T2 construct: Produced in E. coli; also called FLAG-mouse OPGbp/DE; DE variant
T2 sequence: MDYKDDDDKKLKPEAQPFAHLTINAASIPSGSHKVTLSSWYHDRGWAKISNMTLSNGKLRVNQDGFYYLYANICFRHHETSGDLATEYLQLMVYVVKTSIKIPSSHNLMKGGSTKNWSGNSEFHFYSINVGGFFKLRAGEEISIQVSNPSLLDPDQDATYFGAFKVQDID


How the values were obtained:
human OPGbp[143-317] [1] = target: T1, human OPGbp[143-317]; experiment: cell-based or functional assay
[2] = target: T2, FLAG-murine OPGbp[158-316]/DE; experiment: EIA: plate coated with FLAG-murine OPGbp[158-316]/DE at 3 ug/ml, AT antibody in twofold steps 1.953-2000 ng/ml, goat anti-human IgG (Fc) conjugate, ABTS, absorbance at 405 nm
Description: (§1) After overnight incubation, the protein solutions were removed from the plate and 200 μl of 5% Chicken Serum (Gibco/BRL Cat# 16110-082) in PBST (PBS plus 0.05% Tween 20) was added to each well of the plate and plates were incubated at room temperature (RT) for 90 min with agitation. After incubation and blocking, plates were washed 4 times with 1×K-P wash solution in dH₂O (Cat#50-63-00, Kirkegaard & Perry Laboratories) and dried. […] Plates were incubated for three hours at room temperature with agitation, washed four times with 1×K-P wash solution and dried. Goat anti-human IgG (Fc) (Jackson ImmunoResearch, Cat# 109-036-098) was diluted 1:5000 in 5% Chicken Serum in PBST and 100 μl was added to each well. […] 100 μl of undiluted ABTS substrate (Kirkegaard & Perry; Cat# 50-66-00) was added to each well and the dish was incubated at room temperature until sufficient blue-green color developed. Color development was stopped by addition of 100 μl 1% SDS. Quantitation of color development was performed using a microtiter plate reader with detection at 405 nm.

human OPGbp[143-317] [3] = target: T1, human OPGbp[143-317]; experiment: EIA: plate coated with human OPGbp[143-317] at 3 ug/ml, AT antibody in twofold steps 1.953-2000 ng/ml, goat anti-human IgG (Fc) conjugate, ABTS, absorbance at 405 nm
Description: as §1

human OPGbp[143-317] [4] = target: T1, human OPGbp[143-317]; experiment: SPR (BIAcore), immobilized OPGbp[143-317]

Row | Binder | koff (human OPGbp[143-317] [4]) [s⁻¹] | also measured
1 | Fab “Y” (Fab, V domains shown) VH: EVQLVQSGAEVRKPGASVKVSCKASGYDFSNYAIHWVRQAPGQRLEWMGWINAGNGNTKFSQKFQGRITVTRDTAASTAYMELRSLRSEDTAVYYCARDSSNMVRGIIIAYYFDYWGQGTLVTVSS VL: EIVLTQSPATLSFSPGERATLSCRASQSVGSYLAWYQQRPGQAPRPLIYDATNRATGIPTRFSGSGSGTDFTLTISSLEPEDFATYYCQHRRTFGRGTKLEIKR |  | murine bone marrow assay, TRAP in solution (pNPP), IC50 (human OPGbp[143-317] [1]): 212 nM
2 | “AT” antibody (antibody, human IgG1, V domains shown, Full-length antibody from CHO cells: Fab “AT” heavy chain variable region joined to human IgG1 CH1, hinge, CH2 and CH3; light chain of Fab “AT” (kappa); the mature antibodies are identical; also called “AT” Ab; “AT” Nb) VH: QVQLVQSGAEVRKPGASVKVSCKASGYDFSNYAIHWVRQAPGQRLEWMGWINAGNGNTKFSQKFQGRITVTRDTAASTAYMELRSLRSEDTAVYYCARDSSNMVRGIIIAYYFDYWGQGTLVTVSS VL: EIVMTQSPSSLSASVGDRVTITCRASQSISRYLNWYQLKPGKAPRLLIYGASSLQSGVPSRFSGSGSGAEFTLTISSLQPEDIATYYCQHTRAFGQGTKVEIKR |  | EC50 (read off the curve) [2]: ~0.02 µg/mL; EC50 (read off the curve) (human OPGbp[143-317] [3]): ~0.01 µg/mL
3 | “AT” Fab S96A (Fab, V domains shown, The Fab carried a 6xHis tag. Its chain and terminus are not stated, so it is left out., His-tagged Fab) VH: QVQLVQSGAEVRKPGASVKVSCKASGYDFSNYAIHWVRQAPGQRLEWMGWINAGNGNTKFSQKFQGRITVTRDTAASTAYMELRSLRSEDTAVYYCARDASNMVRGIIIAYYFDYWGQGTLVTVSS VL: EIVMTQSPSSLSASVGDRVTITCRASQSISRYLNWYQLKPGKAPRLLIYGASSLQSGVPSRFSGSGSGAEFTLTISSLQPEDIATYYCQHTRAFGQGTKVEIKR | 0.0072 | 
4 | “AT” Fab S97A (Fab, V domains shown, The Fab carried a 6xHis tag. Its chain and terminus are not stated, so it is left out., His-tagged Fab) VH: QVQLVQSGAEVRKPGASVKVSCKASGYDFSNYAIHWVRQAPGQRLEWMGWINAGNGNTKFSQKFQGRITVTRDTAASTAYMELRSLRSEDTAVYYCARDSANMVRGIIIAYYFDYWGQGTLVTVSS VL: EIVMTQSPSSLSASVGDRVTITCRASQSISRYLNWYQLKPGKAPRLLIYGASSLQSGVPSRFSGSGSGAEFTLTISSLQPEDIATYYCQHTRAFGQGTKVEIKR | 0.0062 | 
5 | “AT” Fab Y111A (Fab, V domains shown, His-tagged Fab) VH: QVQLVQSGAEVRKPGASVKVSCKASGYDFSNYAIHWVRQAPGQRLEWMGWINAGNGNTKFSQKFQGRITVTRDTAASTAYMELRSLRSEDTAVYYCARDSSNMVRGIIIAYYFDAWGQGTLVTVSS VL: EIVMTQSPSSLSASVGDRVTITCRASQSISRYLNWYQLKPGKAPRLLIYGASSLQSGVPSRFSGSGSGAEFTLTISSLQPEDIATYYCQHTRAFGQGTKVEIKR | 0.414 | 
6 | “AT” Fab N98A (Fab, V domains shown, The Fab carried a 6xHis tag. Its chain and terminus are not stated, so it is left out., His-tagged Fab) VH: QVQLVQSGAEVRKPGASVKVSCKASGYDFSNYAIHWVRQAPGQRLEWMGWINAGNGNTKFSQKFQGRITVTRDTAASTAYMELRSLRSEDTAVYYCARDSSAMVRGIIIAYYFDYWGQGTLVTVSS VL: EIVMTQSPSSLSASVGDRVTITCRASQSISRYLNWYQLKPGKAPRLLIYGASSLQSGVPSRFSGSGSGAEFTLTISSLQPEDIATYYCQHTRAFGQGTKVEIKR | 0.012 | 
7 | “AT” Fab D95A (Fab, V domains shown, The Fab carried a 6xHis tag. Its chain and terminus are not stated, so it is left out., His-tagged Fab) VH: QVQLVQSGAEVRKPGASVKVSCKASGYDFSNYAIHWVRQAPGQRLEWMGWINAGNGNTKFSQKFQGRITVTRDTAASTAYMELRSLRSEDTAVYYCARASSNMVRGIIIAYYFDYWGQGTLVTVSS VL: EIVMTQSPSSLSASVGDRVTITCRASQSISRYLNWYQLKPGKAPRLLIYGASSLQSGVPSRFSGSGSGAEFTLTISSLQPEDIATYYCQHTRAFGQGTKVEIKR |  | binding result (human OPGbp[143-317] [4]): no binding
8 | “AT” Fab D110A (Fab, V domains shown, His-tagged Fab) VH: QVQLVQSGAEVRKPGASVKVSCKASGYDFSNYAIHWVRQAPGQRLEWMGWINAGNGNTKFSQKFQGRITVTRDTAASTAYMELRSLRSEDTAVYYCARDSSNMVRGIIIAYYFAYWGQGTLVTVSS VL: EIVMTQSPSSLSASVGDRVTITCRASQSISRYLNWYQLKPGKAPRLLIYGASSLQSGVPSRFSGSGSGAEFTLTISSLQPEDIATYYCQHTRAFGQGTKVEIKR | 0.127 | 
